Patent publication US20240383984A1 (Genentech, published 2024)

T1: cynomolgus E11 domain protein (cynomolgus monkey)
T1 construct: whole entry named; also called cyno E11
T1 chain: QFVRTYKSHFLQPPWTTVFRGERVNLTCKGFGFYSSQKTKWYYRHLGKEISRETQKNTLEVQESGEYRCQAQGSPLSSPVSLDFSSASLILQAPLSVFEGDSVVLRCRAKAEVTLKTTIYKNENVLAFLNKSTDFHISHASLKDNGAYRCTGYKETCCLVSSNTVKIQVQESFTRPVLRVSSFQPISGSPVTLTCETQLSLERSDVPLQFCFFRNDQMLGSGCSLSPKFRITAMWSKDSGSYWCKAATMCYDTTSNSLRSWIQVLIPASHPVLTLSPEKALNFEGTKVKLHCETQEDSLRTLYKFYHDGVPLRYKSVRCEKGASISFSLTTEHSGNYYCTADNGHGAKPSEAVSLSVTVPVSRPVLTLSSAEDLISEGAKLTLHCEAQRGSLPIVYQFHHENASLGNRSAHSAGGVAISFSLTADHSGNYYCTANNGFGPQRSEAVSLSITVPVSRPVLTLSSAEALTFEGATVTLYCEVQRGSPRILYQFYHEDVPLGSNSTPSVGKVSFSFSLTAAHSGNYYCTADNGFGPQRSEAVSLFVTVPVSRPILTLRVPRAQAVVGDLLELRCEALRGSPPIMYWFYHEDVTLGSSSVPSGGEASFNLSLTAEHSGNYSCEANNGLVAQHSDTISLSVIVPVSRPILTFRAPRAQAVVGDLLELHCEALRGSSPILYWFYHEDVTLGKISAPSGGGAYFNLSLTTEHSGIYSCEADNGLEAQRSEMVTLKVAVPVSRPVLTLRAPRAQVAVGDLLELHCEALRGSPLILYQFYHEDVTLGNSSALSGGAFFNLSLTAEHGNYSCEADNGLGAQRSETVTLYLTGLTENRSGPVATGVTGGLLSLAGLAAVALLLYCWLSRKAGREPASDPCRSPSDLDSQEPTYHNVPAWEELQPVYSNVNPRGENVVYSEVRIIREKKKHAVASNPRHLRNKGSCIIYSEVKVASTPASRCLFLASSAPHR

T2: human E11 protein (amino acids 745-850 of SEQ ID NO: 114, N-terminal His tag) (human, UniProt Q96RD9 745-850)
T2 construct: Membrane-proximal Ig domain of FcRH5, produced in CHO cells; also called human E11 domain; recombinant human E11
T2 sequence: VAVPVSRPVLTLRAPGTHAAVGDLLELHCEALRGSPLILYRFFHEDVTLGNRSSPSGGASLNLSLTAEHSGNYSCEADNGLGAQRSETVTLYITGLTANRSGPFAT

T3: human FcRH1 (full-length, on SVT2 cells) (human, UniProt Q96LA6 17-429)
T3 construct: whole, on cells; also called SVT2-FcRH1
T3 sequence (looked up): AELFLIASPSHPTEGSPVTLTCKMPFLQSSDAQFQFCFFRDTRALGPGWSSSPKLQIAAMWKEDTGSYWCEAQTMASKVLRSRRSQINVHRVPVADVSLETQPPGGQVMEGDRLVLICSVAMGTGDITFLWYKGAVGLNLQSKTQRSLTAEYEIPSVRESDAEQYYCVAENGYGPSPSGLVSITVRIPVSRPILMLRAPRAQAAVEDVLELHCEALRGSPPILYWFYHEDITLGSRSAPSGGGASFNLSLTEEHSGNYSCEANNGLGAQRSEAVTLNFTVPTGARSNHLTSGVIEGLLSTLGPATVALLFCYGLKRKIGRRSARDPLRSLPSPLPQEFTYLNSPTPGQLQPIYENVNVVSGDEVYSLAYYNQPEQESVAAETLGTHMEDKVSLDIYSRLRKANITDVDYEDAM

T4: human FcRH4 (full-length, on SVT2 cells) (human, UniProt Q96PJ5 20-515)
T4 construct: whole, on cells; also called SVT2-FcRH4
T4 sequence (looked up): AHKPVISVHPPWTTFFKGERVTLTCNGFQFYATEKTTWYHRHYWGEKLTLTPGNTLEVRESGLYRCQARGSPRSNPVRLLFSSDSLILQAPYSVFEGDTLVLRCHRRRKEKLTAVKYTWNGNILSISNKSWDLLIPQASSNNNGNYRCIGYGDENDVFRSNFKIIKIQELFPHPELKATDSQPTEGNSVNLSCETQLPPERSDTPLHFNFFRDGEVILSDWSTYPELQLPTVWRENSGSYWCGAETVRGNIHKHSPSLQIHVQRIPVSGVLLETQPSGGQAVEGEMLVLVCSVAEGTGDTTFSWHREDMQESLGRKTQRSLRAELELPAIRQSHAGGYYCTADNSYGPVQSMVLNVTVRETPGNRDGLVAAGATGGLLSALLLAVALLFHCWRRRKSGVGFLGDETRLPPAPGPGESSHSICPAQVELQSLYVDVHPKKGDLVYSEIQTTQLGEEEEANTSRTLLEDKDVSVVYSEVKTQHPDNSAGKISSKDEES


Legend:
[1] = biological target: T1, cynomolgus E11 domain protein; experiment: SPR, IgG captured on protein A, monovalent
Description: (§1) *E11 domain, transmembrane domain, and cytoplasmic domains of human FcRHS. §Surface plasmon resonance BIACORE * KD, monovalent affinity. Human E11 domain experiments were performed 1 to 3 times and averaged.
(§2) Briefly, test antibodies were captured on flow cells 2, 3 or 4 with flow cell 1 as a reference on a protein A Series S CM5 chip (GE Life Sciences, Piscataway, NJ). An FcRH5 protein fragment was used as analyte, with a flow rate of 30 μl/minute. Between injections the capture surface was regenerated by a 30 second injection of 10 mM glycine, pH 1.5 at a flow rate of 10 μl/minute. Interactions were assessed at 25° C. in 10 mM HEPES pH 7.4, 150 mM NaCl, 0.05% Tween 20 (HBSP). Reference data from the reference flow cell and from injection of buffer alone was subtracted prior to kinetic analysis. Kinetic information was calculated by fitting data to a 1:1 binding model. Reference subtraction and data fitting were performed using BIAevaluation software (GE Life Sciences, Piscataway, NJ).

[2] = biological target: T2, human E11 protein (amino acids 745-850 …); experiment: SPR, IgG captured on protein A, monovalent
Description: as §1, §2

[3] = biological target: T3, human FcRH1 (full-length, on SVT2 cells); experiment: FACS, SVT2 cells
[4] = biological target: T4, human FcRH4 (full-length, on SVT2 cells); experiment: FACS, SVT2 cells

Row | Binder | Kd [1] | Kd [2] | binding result [3] | binding result [4]
1 | 17B1 (antibody, mouse IgG2a, V domains shown, mouse mAb, Campaign C; recombinant murine IgG2a for SPR) VH: QVQLQQSGPELVRPGVSVKISCKGSGYTFTHYAMHWVKQSHTKSLEWIGMISSSSGNTNFNQKFMDKATMTVDKSSTTAYLELARLTFGDSAIYYCARWSYYALFDYWGQGTTVTVSS VL: ENVLTQSPAIMSASPGEKVTMTCSADSSVDYIHWYQQKSNTSPKLWIYDTSKLASGVPGRFSGSGSGNSYSLTISSMEAEDFATYYCFQGSGYPLTFGSGTKLELK | 27 nM | 68 nM | no binding | no binding
2 | 15G8 (antibody, mouse IgG2a, V domains shown, mouse mAb, Campaign C; recombinant murine IgG2a for SPR; also called mAb 15G8) VH: EVQLQQSGPELVKPGASVKMSCKASGYTFTNYVIHWMKQKPGQGLEWIGYISPYNDYTKYNEKFEGKATLTSDKSSNTAYMELSSLTSEDSAVYYCARRDYYGSSDYWGQGTTLTVSS VL: QIVLTQSPAIMSASPGEKVTMTCSASSSVDYMHWYQQKSGTSPKKWIYDTSKLASGVPARFSGSGSGTSYSLTIGSMEAEDAATYYCQQWSSNPPTFGGGTKLEIK | 9.1 nM | 0.5 nM | no binding | no binding
